Experimental findings from IntAct's records for PubMed 20531392 are described below.

The labels stand for the following.
B1: Peroxisomal biogenesis factor 19 (Homo sapiens), P40855 (parent)
chain: MAAAEEGCSVGAEADRELEELLESALDDFDKAKPSPAPPSTTTAPDASGPQKRSPGDTAKDALFASQEKFFQELFDSELASQATAEFEKAMKELAEEEPHLVEQFQKLSEAAGRVGSDMTSQQEFTSCLKETLSGLAKNATDLQNSSMSEEELTKAMEGLGMDEGDGEGNILPIMQSIMQNLLSKDVLYPSLKEITEKYPEWLQSHRESLPPEQFEKYQEQHSVMCKICEQFEAETPTDSETTQKARFEMVLDLMQQLQDLGHPPKELAGEMPPGLNFDLDALNLSGPPGASGEQCLIM
B2: Peroxisomal biogenesis factor 19 (Homo sapiens), P40855 (parent)
chain: B1 chain
partner: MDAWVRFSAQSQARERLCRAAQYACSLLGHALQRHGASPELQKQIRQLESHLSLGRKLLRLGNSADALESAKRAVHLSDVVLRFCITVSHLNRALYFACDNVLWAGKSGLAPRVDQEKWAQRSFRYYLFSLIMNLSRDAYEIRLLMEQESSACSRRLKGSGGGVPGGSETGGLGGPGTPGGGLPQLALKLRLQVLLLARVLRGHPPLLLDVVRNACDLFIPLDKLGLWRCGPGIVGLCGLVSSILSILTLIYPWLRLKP

The variants in one assay derive from B1. The conditions noted are these: with pex13_human PEX13, Q92968.
pex13_human PEX13, Q92968, sequence (Q92968 whole entry): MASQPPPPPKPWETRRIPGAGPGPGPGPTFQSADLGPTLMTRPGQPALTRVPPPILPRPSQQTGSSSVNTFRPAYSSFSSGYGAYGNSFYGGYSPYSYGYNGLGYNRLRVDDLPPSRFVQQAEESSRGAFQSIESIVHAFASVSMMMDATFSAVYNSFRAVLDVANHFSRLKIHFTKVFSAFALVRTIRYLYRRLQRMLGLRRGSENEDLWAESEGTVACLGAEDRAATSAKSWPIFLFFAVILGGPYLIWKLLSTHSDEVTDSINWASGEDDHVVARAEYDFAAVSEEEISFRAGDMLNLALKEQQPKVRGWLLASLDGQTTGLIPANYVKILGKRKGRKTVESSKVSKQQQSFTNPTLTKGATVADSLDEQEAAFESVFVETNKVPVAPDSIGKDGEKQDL
Turning to MAAAEEGCSVGAEADRELEELLESALDDFDKAKPSPAPPSTTTAPDASGPQKRSPGDTAKDALFASQEKFFQELFDSELASQATAEFEKAMKELAEEEPHLVEQFQKLSEAAGRVGSDMTSQQEFTSCLKETLSGLAKNATDLQNSSMSEEELTKAMEGLGMDEGDGEGNILPIMQSIMQNPLSKDVLYPSLKEITEKYPEWLQSHRESLPPEQFEKYQEQHSVMCKICEQFEAETPTDSETTQKARFEMVLDLMQQLQDLGHPPKELAGEMPPGLNFDLDALNLSGPPGASGEQCLIM [L182P], the “effect of a mutation on the interaction” value is “decreasing interaction”.

In another assay the parent is B1. The conditions noted are these: with pex13_human PEX13, Q92968. This is another data set of the same source.
As for MAAAEEGCSVGAEADRELEELLESALDDFDKAKPSPAPPSTTTAPDASGPQKRSPGDTAKDALFASQEKFFQELFDSELASQATAEFEKAMKELAEEEPHLVEQFQKLSEAAGRVGSDMTSQQEFTSCLKETLSGLAKNATDLQNSSMSEEELTKAMEGLGMDEGDGEGNILPIMQSIMQNWLSKDVLYPSLKEITEKYPEWLQSHRESLPPEQFEKYQEQHSVMCKICEQFEAETPTDSETTQKARFEMVLDLMQQLQDLGHPPKELAGEMPPGLNFDLDALNLSGPPGASGEQCLIM [L182W], the “effect of a mutation on the interaction” value is reported as “disrupting interaction”.

The variants in the next assay derive from B1. The conditions noted are these: with pex13_human PEX13, Q92968. This is another data set of the same source.
On to MAAAEEGCSVGAEADRELEELLESALDDFDKAKPSPAPPSTTTAPDASGPQKRSPGDTAKDALFASQEKFFQELFDSELASQATAEFEKAMKELAEEEPHLVEQFQKLSEAAGRVGSDMTSQQEFTSCLKETLSGLAKNATDLQNSSMSEEELTKAMEGLGMDEGDGEGNILPIMQSPMQNLLSKDVLYPSLKEITEKYPEWLQSHRESLPPEQFEKYQEQHSVMCKICEQFEAETPTDSETTQKARFEMVLDLMQQLQDLGHPPKELAGEMPPGLNFDLDALNLSGPPGASGEQCLIM [I178P], for which the “effect of a mutation on the interaction” value is listed as “disrupting interaction”.

In another assay the parent is B1. The conditions noted are these: with pex13_human PEX13, Q92968. The source holds these as a separate data set.
Regarding MAAAEEGCSVGAEADRELEELLESALDDFDKAKPSPAPPSTTTAPDASGPQKRSPGDTAKDALFASQEKFFQELFDSELASQATAEFEKAMKELAEEEPHLVEQFQKLSEAAGRVGSDMTSQQEFTSCLKETLSGLAKNATDLQNSSMSEEELTKAMEGLGMDEGDGEGNILPIMQSWMQNLLSKDVLYPSLKEITEKYPEWLQSHRESLPPEQFEKYQEQHSVMCKICEQFEAETPTDSETTQKARFEMVLDLMQQLQDLGHPPKELAGEMPPGLNFDLDALNLSGPPGASGEQCLIM [I178W], the “effect of a mutation on the interaction” value is recorded as “decreasing interaction”.

Variants of B2 are the subject of a further assay. The conditions noted are these: with px11b_human PEX11B.
With MAAAEEGCSVGAEADRELEELLESALDDFDKAKPSPAPPSTTTAPDASGPQKRSPGDTAKDALFASQEKFFQELFDSELASQATAEFEKAMKELAEEEPHLVEQFQKLSEAAGRVGSDMTSQQEFTSCLKETLSGLAKNATDLQNSSMSEEELTKAMEGLGMDEGDGEGNILPIMQSIMQNPLSKDVLYPSLKEITEKYPEWLQSHRESLPPEQFEKYQEQHSVMCKICEQFEAETPTDSETTQKARFEMVLDLMQQLQDLGHPPKELAGEMPPGLNFDLDALNLSGPPGASGEQCLIM [L182P], the “effect of a mutation on the interaction” value is recorded as “disrupting interaction”.

Another assay covers variants of B2. The conditions noted are these: with px11b_human PEX11B. The source holds these as a separate data set.
MAAAEEGCSVGAEADRELEELLESALDDFDKAKPSPAPPSTTTAPDASGPQKRSPGDTAKDALFASQEKFFQELFDSELASQATAEFEKAMKELAEEEPHLVEQFQKLSEAAGRVGSDMTSQQEFTSCLKETLSGLAKNATDLQNSSMSEEELTKAMEGLGMDEGDGEGNILPIMQSWMQNLLSKDVLYPSLKEITEKYPEWLQSHRESLPPEQFEKYQEQHSVMCKICEQFEAETPTDSETTQKARFEMVLDLMQQLQDLGHPPKELAGEMPPGLNFDLDALNLSGPPGASGEQCLIM [I178W]: the “effect of a mutation on the interaction” value is recorded as “disrupting interaction”.
